In paper PMC6275602 (Cellular & Molecular Biology Letters, 2012):
Where two headings read alike, the source gives them in different places.

Tests used:
[1] = target: T1, human low-density lipoprotein (LDL; d = 1.019-1.063 g/ml) (human); assay: SPR
[2] = target: T1, human low-density lipoprotein (LDL; d = …); assay: SPR; remark: listed apart in the source

B1: sPLA2-X-HisTag, purified recombinant human (enzyme, UniProt O15496 43-165, looked up)
chain: GILELAGTVGCVGPRTPIAYMKYGCFCGLGGHGQPRDAIDWCCHGHDCCYTRAEEAGCSPKTERYSWQCVNQSVLCGPAENKCQELLCKCDQEIANCLAQTEYNLKYLFYPQFLCEPDSPKCD
Binder B1 has a Kd [1] of 110 nM, a koff [1] of 0.00886 s⁻¹ and a kon [1] of 82500 M⁻¹ s⁻¹. The Kd [2] was 3.1 nM, the koff [2] was 0.00024 s⁻¹ and the kon [2] was 65400 M⁻¹ s⁻¹.
